The values that follow come from paper PMC11794430.

The experiment addresses HA-tagged Mincle (macrophage-inducible C-type lectin, CLEC4E) (UniProt Q9ULY5). Kind of experiment: MST.
Sequence of UniProt Q9ULY5 (Q9ULY5 whole entry): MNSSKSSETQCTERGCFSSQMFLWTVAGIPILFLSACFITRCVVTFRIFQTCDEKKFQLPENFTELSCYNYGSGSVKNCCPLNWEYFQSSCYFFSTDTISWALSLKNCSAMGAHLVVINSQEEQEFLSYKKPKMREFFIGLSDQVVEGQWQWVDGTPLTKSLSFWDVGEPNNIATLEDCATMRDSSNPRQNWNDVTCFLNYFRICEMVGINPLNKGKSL

On to “Fucosylated haptoglobin purified from sepsis patients (from UniProt P00738 162-406; P00738 19-160) (natural protein)”, for which the Kd (usually the constant that tells how readily two partners part at equilibrium) was determined as 5.7 µM.

“Haptoglobin purified from healthy controls (from UniProt P00738 162-406; P00738 19-160) (natural protein)” showed a Kd of 22.9 µM.
